Tests used:
hnRNP A1 RRM2 [1] = biological target: T1, hnRNP A1 RRM2 (UniProt P09651 95-196); experiment: NMR titration; fast exchange; ITC: 10 mM NaPi pH 6.5, 10 mM 2-mercaptoethanol, 30 C, protein titrated into RNA; NMR: 10 mM NaPi pH 6.5, 1 mM DTT (303 K stated for UP1-R140A:ISS-N1-u25g); settings: protein: recombinant; single strand
hnRNP A1 RRM1 [2] = biological target: T2, hnRNP A1 RRM1 (UniProt P09651 2-97); experiment: as above; settings: protein: recombinant; single strand
hnRNP A1 UP1 r1R2 [3] = biological target: hnRNP A1 UP1 r1R2 (Homo sapiens, UniProt P09651 2-196, F17A;F59A); experiment: ITC; 10 mM sodium phosphate pH 6.5, 10 mM 2-mercaptoethanol, no added salt, 30 C; RNA 5-10 uM in the cell; 1:1 fit; settings: extra N-terminal Gly-Gly in PDB 2LYV (left out)
Chain of hnRNP A1 UP1 r1R2 (P09651 2-196 F17A/F59A): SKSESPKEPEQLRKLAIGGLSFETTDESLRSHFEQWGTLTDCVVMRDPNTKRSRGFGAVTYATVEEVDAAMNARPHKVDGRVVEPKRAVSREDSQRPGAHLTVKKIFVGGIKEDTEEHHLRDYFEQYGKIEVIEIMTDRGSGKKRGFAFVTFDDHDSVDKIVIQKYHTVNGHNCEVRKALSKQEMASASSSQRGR

hnRNP A1 RRM2 R140A [4] = biological target: T3, hnRNP A1 RRM2 R140A (UniProt P09651 95-196, R140A); experiment: as above; settings: none in PDB 5MPL
T3 sequence (P09651 95-196 R140A): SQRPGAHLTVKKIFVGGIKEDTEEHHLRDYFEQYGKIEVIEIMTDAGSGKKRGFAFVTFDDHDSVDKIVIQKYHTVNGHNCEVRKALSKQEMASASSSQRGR

hnRNP A1 RRM1 [5] = biological target: T2, hnRNP A1 RRM1; experiment: as above; settings: one extra N-terminal Ala in PDB 5MPG (left out)
hnRNP A1 UP1 R1r2 [6] = biological target: hnRNP A1 UP1 R1r2 (Homo sapiens, UniProt P09651 2-196, F108A;F150A); experiment: as above; settings: extra N-terminal Gly-Gly in PDB 2LYV (left out)
Chain of hnRNP A1 UP1 R1r2 (P09651 2-196 F108A/F150A): as the sequence (P09651 2-196 F17A/F59A) above, with A16F, A58F, F107A, F149A counted along it

UP1 r1R2 = UP1 r1R2 (UniProt P09651 1-196, F17A;F59A); experiment: ITC; ITC: 10 mM NaPi pH 6.5, 10 mM 2-mercaptoethanol, 30 C, protein titrated into RNA; NMR: 10 mM NaPi pH 6.5, 1 mM DTT (303 K stated for UP1-R140A:ISS-N1-u25g); settings: protein: recombinant; single strand
Chain of UP1 r1R2 (P09651 1-196 F17A/F59A): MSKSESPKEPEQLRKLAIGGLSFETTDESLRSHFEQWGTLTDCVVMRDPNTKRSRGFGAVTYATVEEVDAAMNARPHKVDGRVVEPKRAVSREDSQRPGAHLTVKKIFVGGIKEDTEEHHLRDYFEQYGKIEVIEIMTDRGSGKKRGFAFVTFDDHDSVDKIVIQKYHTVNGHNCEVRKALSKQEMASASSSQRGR

hnRNP A1 RRM2 E176Q = hnRNP A1 RRM2 E176Q (UniProt P09651 95-196, E176Q); experiment: as above; settings: protein: recombinant; single strand
Chain of hnRNP A1 RRM2 E176Q (P09651 95-196 E176Q): as the sequence (P09651 95-196 R140A) above, with A46R, E82Q counted along it

hnRNP A1 RRM2 [7] = biological target: T1, hnRNP A1 RRM2; experiment: as above; settings: protein: recombinant; single strand
hnRNP A1 RRM2 R140A [8] = biological target: T3, hnRNP A1 RRM2 R140A; experiment: ITC; range, no saturation; ITC: 10 mM NaPi pH 6.5, 10 mM 2-mercaptoethanol, 30 C, protein titrated into RNA; NMR: 10 mM NaPi pH 6.5, 1 mM DTT (303 K stated for UP1-R140A:ISS-N1-u25g); settings: protein: recombinant; single strand
hnRNP A1 RRM1 [9] = biological target: T2, hnRNP A1 RRM1; experiment: as above; settings: protein: recombinant; single strand
hnRNP A1 RRM1 [10] = biological target: T2, hnRNP A1 RRM1; experiment: NMR titration; intermediate exchange; ITC: 10 mM NaPi pH 6.5, 10 mM 2-mercaptoethanol, 30 C, protein titrated into RNA; NMR: 10 mM NaPi pH 6.5, 1 mM DTT (303 K stated for UP1-R140A:ISS-N1-u25g); settings: protein: recombinant; single strand
UP1 [11] = biological target: T4, UP1 (UniProt P09651 1-196); experiment: NMR titration; intermediate exchange, both RRMs; ITC: 10 mM NaPi pH 6.5, 10 mM 2-mercaptoethanol, 30 C, protein titrated into RNA; NMR: 10 mM NaPi pH 6.5, 1 mM DTT (303 K stated for UP1-R140A:ISS-N1-u25g); settings: protein: recombinant; single strand
T4 sequence (P09651 1-196): as the sequence (P09651 1-196 F17A/F59A) above, with A17F, A59F counted along it

UP1 R140A [12] = biological target: T5, UP1 R140A (UniProt P09651 1-196, R140A); experiment: NMR titration; 1 equivalent RNA; ITC: 10 mM NaPi pH 6.5, 10 mM 2-mercaptoethanol, 30 C, protein titrated into RNA; NMR: 10 mM NaPi pH 6.5, 1 mM DTT (303 K stated for UP1-R140A:ISS-N1-u25g); settings: protein: recombinant; single strand
T5 sequence (P09651 1-196 R140A): as the sequence (P09651 1-196 F17A/F59A) above, with A17F, A59F, R140A counted along it

hnRNP A1 RRM1 F23A = hnRNP A1 RRM1 F23A (UniProt P09651 2-97, F23A); experiment: ITC; ITC: 10 mM NaPi pH 6.5, 10 mM 2-mercaptoethanol, 30 C, protein titrated into RNA; NMR: 10 mM NaPi pH 6.5, 1 mM DTT (303 K stated for UP1-R140A:ISS-N1-u25g); settings: protein: recombinant; single strand
Chain of hnRNP A1 RRM1 F23A (P09651 2-97 F23A): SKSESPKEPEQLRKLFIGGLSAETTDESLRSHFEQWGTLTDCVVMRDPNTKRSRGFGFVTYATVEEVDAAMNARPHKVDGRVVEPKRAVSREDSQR

hnRNP A1 RRM1 [13] = biological target: T2, hnRNP A1 RRM1; experiment: as above; settings: protein: recombinant; single strand
UP1 [14] = biological target: T4, UP1; experiment: NMR PRE; 1:1 complex; ITC: 10 mM NaPi pH 6.5, 10 mM 2-mercaptoethanol, 30 C, protein titrated into RNA; NMR: 10 mM NaPi pH 6.5, 1 mM DTT (303 K stated for UP1-R140A:ISS-N1-u25g); settings: protein: recombinant; label: IA-proxyl spin label on s4U18; single strand
UP1 R140A [15] = biological target: T5, UP1 R140A; experiment: as above; settings: protein: recombinant; label: IA-proxyl spin label on s4U18; single strand
UP1 [16] = biological target: T4, UP1; experiment: NMR titration; broad lines; ITC: 10 mM NaPi pH 6.5, 10 mM 2-mercaptoethanol, 30 C, protein titrated into RNA; NMR: 10 mM NaPi pH 6.5, 1 mM DTT (303 K stated for UP1-R140A:ISS-N1-u25g); settings: protein: recombinant; single strand
hnRNP A1 RRM2 R140A [17] = biological target: T3, hnRNP A1 RRM2 R140A; experiment: ITC; ITC: 10 mM NaPi pH 6.5, 10 mM 2-mercaptoethanol, 30 C, protein titrated into RNA; NMR: 10 mM NaPi pH 6.5, 1 mM DTT (303 K stated for UP1-R140A:ISS-N1-u25g); settings: protein: recombinant; single strand
hnRNP A1 RRM2 M186A = hnRNP A1 RRM2 M186A (UniProt P09651 95-196, M186A); experiment: ITC; 10 mM sodium phosphate pH 6.5, 10 mM 2-mercaptoethanol, no added salt, 30 C; RNA 5-10 uM in the cell; 1:1 fit; settings: none in PDB 5MPL
Chain of hnRNP A1 RRM2 M186A (P09651 95-196 M186A): as the sequence (P09651 95-196 R140A) above, with A46R, M92A counted along it

hnRNP A1 RRM2 Y167F = hnRNP A1 RRM2 Y167F (UniProt P09651 95-196, Y167F); experiment: ITC; ITC: 10 mM NaPi pH 6.5, 10 mM 2-mercaptoethanol, 30 C, protein titrated into RNA; NMR: 10 mM NaPi pH 6.5, 1 mM DTT (303 K stated for UP1-R140A:ISS-N1-u25g); settings: protein: recombinant; single strand
Chain of hnRNP A1 RRM2 Y167F (P09651 95-196 Y167F): as the sequence (P09651 95-196 R140A) above, with A46R, Y73F counted along it

UP1 R140A [18] = biological target: T5, UP1 R140A; experiment: NMR (intermolecular NOEs, structural model); 1:1 complex; RRM2 on 5' motif, RRM1 on 3' motif; ITC: 10 mM NaPi pH 6.5, 10 mM 2-mercaptoethanol, 30 C, protein titrated into RNA; NMR: 10 mM NaPi pH 6.5, 1 mM DTT (303 K stated for UP1-R140A:ISS-N1-u25g); settings: protein: recombinant; single strand

T1 sequence (P09651 95-196): as the sequence (P09651 95-196 R140A) above, with A46R counted along it
T2 sequence (P09651 2-97): as the sequence (P09651 2-97 F23A) above, with A22F counted along it

UCAGGG (ssRNA)
binding result (hnRNP A1 RRM2 [1]): binds

CAGCAU (ssRNA)
binding result (hnRNP A1 RRM1 [2]): binds | binding result (hnRNP A1 RRM2 [1]): binds

UAAGUU (ssRNA)
Kd (hnRNP A1 UP1 r1R2 [3]): 685 ± 42 nM | Kd (hnRNP A1 RRM2 R140A [4]): ~3300 nM | Kd (hnRNP A1 RRM1 [5]): ~4610 nM | Kd (hnRNP A1 UP1 R1r2 [6]): 658 ± 44 nM | Kd (UP1 r1R2): 685 ± 42 nM | Kd (hnRNP A1 RRM2 E176Q): 429 ± 27 nM | Kd (hnRNP A1 RRM2 [7]): 543 ± 31 nM | Kd (hnRNP A1 RRM2 R140A [8]): ~2240 nM | Kd (hnRNP A1 RRM1 [9]): ~5200 nM

UGAAAGU (ssRNA)
binding result (hnRNP A1 RRM1 [2]): binds | binding result (hnRNP A1 RRM2 [1]): binds

UGAGUU (ssRNA)
Kd (hnRNP A1 UP1 r1R2 [3]): 625 ± 41 nM | Kd (hnRNP A1 RRM2 R140A [4]): ~2650 nM | Kd (hnRNP A1 RRM1 [5]): ~3450 nM | Kd (hnRNP A1 UP1 R1r2 [6]): 654 ± 50 nM | Kd (UP1 r1R2): 625 ± 41 nM | Kd (hnRNP A1 RRM2 E176Q): 324 ± 20 nM | Kd (hnRNP A1 RRM2 [7]): 546 ± 31 nM | Kd (hnRNP A1 RRM2 R140A [8]): ~2240 nM | Kd (hnRNP A1 RRM1 [9]): ~5200 nM

CGUAGGU (ssRNA)
binding result (hnRNP A1 RRM1 [10]): binds

GGACCAGCAUUAUGAAAGUGA (ssRNA) [ISS-N1 WT]
binding result (UP1 [11]): binds | binding result (UP1 R140A [12]): binds

UUAGGGA (ssRNA)
binding result (hnRNP A1 RRM1 [2]): binds | binding result (hnRNP A1 RRM2 [1]): binds

GGACCAGGAUUAUGAAAGUGC (ssRNA) [ISS-N1-c14g]
binding result (UP1 R140A [12]): binds

UUUUAGGUC (ssRNA)
Kd (hnRNP A1 RRM1 F23A): 130 ± 8 nM | Kd (hnRNP A1 RRM1 [13]): 159 ± 9 nM

UUUUAGGU (ssRNA)
binding result (hnRNP A1 RRM1 [10]): binds

ACCAGCAUUAUGAAAGGUA (XNA, 4-thio-U at position 18) [modified ISS-N1 (spin-labeled)]
binding result (UP1 [14]): binds | binding result (UP1 R140A [15]): binds

GGACCAGGAUUAUGAAAGGGC (ssRNA) [ISS-N1-14g25g]
binding result (UP1 R140A [12]): binds | binding result (UP1 [16]): binds

UCAGGUC (ssRNA)
Kd (hnRNP A1 UP1 r1R2 [3]): 178 ± 11 nM | Kd (hnRNP A1 RRM2 R140A [4]): 862 ± 47 nM | Kd (hnRNP A1 UP1 R1r2 [6]): 171 ± 12 nM | Kd (UP1 r1R2): 178 ± 11 nM | Kd (hnRNP A1 RRM2 R140A [17]): 862 ± 47 nM | Kd (hnRNP A1 RRM1 [13]): 543 ± 33 nM | Kd (hnRNP A1 RRM2 E176Q): 132 ± 29 nM | Kd (hnRNP A1 RRM2 [7]): 129 ± 11 nM

UCAGUU (ssRNA)
Kd (hnRNP A1 RRM2 M186A): 1630 nM | Kd (hnRNP A1 UP1 r1R2 [3]): 637 ± 39 nM | Kd (hnRNP A1 RRM2 R140A [4]): ~2490 nM | Kd (hnRNP A1 RRM1 [5]): > 10000 nM | Kd (hnRNP A1 UP1 R1r2 [6]): 578 ± 40 nM | Kd (hnRNP A1 RRM2 Y167F): 513 ± 30 nM | Kd (UP1 r1R2): 637 ± 39 nM | Kd (hnRNP A1 RRM2 E176Q): 237 ± 15 nM | Kd (hnRNP A1 RRM2 [7]): 541 ± 33 nM | Kd (hnRNP A1 RRM2 R140A [8]): ~2240 nM

GGACCAGCAUUAUGAAAGGGA (ssRNA) [ISS-N1-u25g]
binding result (UP1 R140A [18]): binds

UAGGUC (ssRNA)
Kd (hnRNP A1 RRM2 R140A [4]): 685 ± 40 nM | Kd (hnRNP A1 RRM1 F23A): 602 ± 34 nM | Kd (hnRNP A1 RRM2 R140A [17]): 685 ± 40 nM | Kd (hnRNP A1 RRM1 [13]): 625 ± 35 nM | Kd (hnRNP A1 RRM2 E176Q): 227 ± 14 nM | Kd (hnRNP A1 RRM2 [7]): 98 ± 8 nM

— publication PMC5503513, “Tandem hnRNP A1 RNA recognition motifs act in concert to repress the splicing of survival motor neuron exon 7”
